This is an account of results in article PMC2114114.

In this experiment the target is Rat secretory component (rat (endogenous in rat liver)) (UniProt P15083). Description: co-IP.
Chain of UniProt P15083 (P15083 19-611): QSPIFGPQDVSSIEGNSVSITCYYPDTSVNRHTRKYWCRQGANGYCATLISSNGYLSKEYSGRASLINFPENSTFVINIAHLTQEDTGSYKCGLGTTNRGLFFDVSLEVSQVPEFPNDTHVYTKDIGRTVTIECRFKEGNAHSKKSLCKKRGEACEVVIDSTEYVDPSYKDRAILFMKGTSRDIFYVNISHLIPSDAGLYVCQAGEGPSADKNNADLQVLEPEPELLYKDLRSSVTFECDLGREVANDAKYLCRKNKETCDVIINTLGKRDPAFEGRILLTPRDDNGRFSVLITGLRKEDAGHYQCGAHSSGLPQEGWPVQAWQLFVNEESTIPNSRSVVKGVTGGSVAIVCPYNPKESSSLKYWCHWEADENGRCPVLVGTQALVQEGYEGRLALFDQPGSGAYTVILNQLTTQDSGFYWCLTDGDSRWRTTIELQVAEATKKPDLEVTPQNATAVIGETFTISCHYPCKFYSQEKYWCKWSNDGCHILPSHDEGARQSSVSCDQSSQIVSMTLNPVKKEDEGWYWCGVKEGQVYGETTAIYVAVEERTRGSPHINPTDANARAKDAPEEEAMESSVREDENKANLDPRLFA

Turning to “Human monoclonal polymeric IgA (IgA1 myeloma protein) (from UniProt P01591 23-159) (antibody)”, the percent bound to anti-rat SC immunoadsorbent stood at 92.4%.
